Test results taken from US20100035814A1 (Novo Nordisk, published 2010).
Read-outs that look alike come from different tables or passages of the source.

Key:
[1] = molecular target: T1, soluble form of the PRL receptor (UniProt P16471 25-234, limits assumed); assay: SPR (Biacore 3000), soluble PRL receptor amine-coupled to CM5 chip, prolactin molecule injected at 500 nM
T1 construct: extracellular domain; It gives no residues, tag or species; also called prolactin receptor; immobilized receptor
T1 sequence (looked up): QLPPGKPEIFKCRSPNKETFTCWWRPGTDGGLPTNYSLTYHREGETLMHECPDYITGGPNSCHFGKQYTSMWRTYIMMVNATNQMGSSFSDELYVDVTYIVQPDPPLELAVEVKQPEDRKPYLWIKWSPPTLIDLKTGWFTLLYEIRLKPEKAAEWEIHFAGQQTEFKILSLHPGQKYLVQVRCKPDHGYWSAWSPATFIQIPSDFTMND
Procedure: The soluble form of the PRL receptor (25 μg/ml in 10 mM sodium acetate, pH 3.0) was injected into a Biacore 3000 instrument at a flow rate of 5 μl/min and coupled to a CM5 sensor chip by amine coupling chemistry. […] Data evaluation was performed in BiaEvaluation 4.1. Regeneration was accomplished with 4.5 M MgCl₂ between runs.
Using the assay as described in Example 8, the binding of N-terminally pegylated versions of the prolactin antagonist PRL(12-199) Q12S G129R to the prolactin receptor was determined.

[2] = molecular target: T2, hPRLR on stably transfected BaF/3 cells (human, UniProt P16471 25-622); assay: cell-based or functional assay
T2 sequence (looked up): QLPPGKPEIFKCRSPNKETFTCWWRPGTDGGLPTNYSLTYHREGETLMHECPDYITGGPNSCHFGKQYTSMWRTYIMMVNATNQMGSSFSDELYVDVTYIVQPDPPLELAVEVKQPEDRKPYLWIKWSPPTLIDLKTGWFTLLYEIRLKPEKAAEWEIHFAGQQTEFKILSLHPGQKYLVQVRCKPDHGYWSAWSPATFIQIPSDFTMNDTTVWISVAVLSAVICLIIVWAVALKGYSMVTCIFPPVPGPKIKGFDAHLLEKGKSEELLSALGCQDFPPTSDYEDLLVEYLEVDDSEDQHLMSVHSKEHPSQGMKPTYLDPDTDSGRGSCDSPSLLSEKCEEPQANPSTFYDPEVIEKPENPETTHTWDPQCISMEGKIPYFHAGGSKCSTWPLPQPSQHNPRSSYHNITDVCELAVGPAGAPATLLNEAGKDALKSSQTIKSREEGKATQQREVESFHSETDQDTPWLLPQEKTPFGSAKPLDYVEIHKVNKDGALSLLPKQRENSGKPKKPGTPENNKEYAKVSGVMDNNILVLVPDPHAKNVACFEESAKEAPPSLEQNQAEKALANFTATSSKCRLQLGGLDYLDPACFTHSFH

[3] = molecular target: T2, hPRLR on stably transfected BaF/3 cells; assay: cell-based or functional assay; remark: listed apart in the source

B1: PRL wildtype (ligand)
chain: LPICPGGAARCQVTLRDLFDRAVVLSHYIHNLSSEMFSEFDKRYTHGRGFITKAINSCHTSSLATPEDKEQAQQMNQKDFLSLIVSILRSWNEPLYHLVTEVRGMQEAPEAILSKAVEIEEQTKRLLEGMELIVSQVHPETKENEIYPVWSGLPSLQMADEESRLSAYYNLLHCLRRDSHKIDNYLKLLKCRIIHNNNC
notes: also called wtPRL; human prolactin
Kd [1]: 32 nM
EC50, proliferation (AlamarBlue) of BaF/3 cells stably transfected with hPRLR [2]: 0.15 nM
EC50, proliferation (AlamarBlue) of BaF/3 cells stably transfected with hPRLR [3]: 0.15 nM

B2: PRL S61A G129R (ligand)
chain: LPICPGGAARCQVTLRDLFDRAVVLSHYIHNLSSEMFSEFDKRYTHGRGFITKAINSCHTASLATPEDKEQAQQMNQKDFLSLIVSILRSWNEPLYHLVTEVRGMQEAPEAILSKAVEIEEQTKRLLERMELIVSQVHPETKENEIYPVWSGLPSLQMADEESRLSAYYNLLHCLRRDSHKIDNYLKLLKCRIIHNNNC
EC50 of PRL in the presence of 1 µM PRL S61A G129R, proliferation of BaF/3 cells stably transfected with hPRLR [2]: 116 nM

B3: N^alpha1-(3-(20 kDa-mPEGyl)propyl)PRL S61 G129R ("PRL S61A G129R PEG20k") (ligand)
chain: LPICPGGAARCQVTLRDLFDRAVVLSHYIHNLSSEMFSEFDKRYTHGRGFITKAINSCHTASLATPEDKEQAQQMNQKDFLSLIVSILRSWNEPLYHLVTEVRGMQEAPEAILSKAVEIEEQTKRLLERMELIVSQVHPETKENEIYPVWSGLPSLQMADEESRLSAYYNLLHCLRRDSHKIDNYLKLLKCRIIHNNNC
modifications: N-terminal alpha-amino group (N^alpha1) alkylated with 3-(20 kDa mPEGyl)propyl by reductive amination
Kd [1]: 71 nM
EC50 of PRL in the presence of 1 µM PRL S61A G129R PEG20k, proliferation of BaF/3 cells stably transfected with hPRLR [2]: 4.6 nM

B4: N^alpha,13((4-(2-Methyl-4-(10 kDa mPEGyloxy)butanoylamino)butoxy)imino)acetyl G129R-PRL(13-199) (E2) (ligand)
chain: VTLRDLFDRAVVLSHYIHNLSSEMFSEFDKRYTHGRGFITKAINSCHTSSLATPEDKEQAQQMNQKDFLSLIVSILRSWNEPLYHLVTEVRGMQEAPEAILSKAVEIEEQTKRLLERMELIVSQVHPETKENEIYPVWSGLPSLQMADEESRLSAYYNLLHCLRRDSHKIDNYLKLLKCRIIHNNNC
modifications: alpha-amino group of residue 13 carries ((4-(2-methyl-4-(10 kDa mPEGyloxy)butanoylamino)butoxy)imino)acetyl (oxime formed on the periodate-oxidised N-terminal serine of N^alpha,13-seryl G129R-PRL(13-199))
notes: also called N-terminally pegylated PRL(12-199) Q12S G129R (10 kDa PEG)
Kd [1]: 55 nM

B5: N^alpha,13((4-(3-(5 kDa mPEGyloxy)propionylamino)butoxy)imino)acetyl G129R-PRL(13-199) (E4) (ligand)
chain: VTLRDLFDRAVVLSHYIHNLSSEMFSEFDKRYTHGRGFITKAINSCHTSSLATPEDKEQAQQMNQKDFLSLIVSILRSWNEPLYHLVTEVRGMQEAPEAILSKAVEIEEQTKRLLERMELIVSQVHPETKENEIYPVWSGLPSLQMADEESRLSAYYNLLHCLRRDSHKIDNYLKLLKCRIIHNNNC
modifications: alpha-amino group of residue 13 carries ((4-(3-(5 kDa mPEGyloxy)propionylamino)butoxy)imino)acetyl (oxime formed on the periodate-oxidised N-terminal serine of N^alpha,13-seryl G129R-PRL(13-199))
notes: also called N-terminally pegylated PRL(12-199) Q12S G129R (5 kDa PEG)
Kd [1]: 42 nM

B6: N^alpha,13((4-(4-(20 kDa mPEGyloxy)butanoylamino)butoxy)imino)acetyl G129R-PRL(13-199) (E3) (ligand)
chain: VTLRDLFDRAVVLSHYIHNLSSEMFSEFDKRYTHGRGFITKAINSCHTSSLATPEDKEQAQQMNQKDFLSLIVSILRSWNEPLYHLVTEVRGMQEAPEAILSKAVEIEEQTKRLLERMELIVSQVHPETKENEIYPVWSGLPSLQMADEESRLSAYYNLLHCLRRDSHKIDNYLKLLKCRIIHNNNC
modifications: alpha-amino group of residue 13 carries ((4-(4-(20 kDa mPEGyloxy)butanoylamino)butoxy)imino)acetyl (oxime formed on the periodate-oxidised N-terminal serine of N^alpha,13-seryl G129R-PRL(13-199))
notes: also called N-terminally pegylated PRL(12-199) Q12S G129R (20 kDa PEG)
Kd [1]: 70 nM

B7: Ser PRL S33A Q73L G129R K190R (ligand)
chain: SLPICPGGAARCQVTLRDLFDRAVVLSHYIHNLASEMFSEFDKRYTHGRGFITKAINSCHTSSLATPEDKEQALQMNQKDFLSLIVSILRSWNEPLYHLVTEVRGMQEAPEAILSKAVEIEEQTKRLLERMELIVSQVHPETKENEIYPVWSGLPSLQMADEESRLSAYYNLLHCLRRDSHKIDNYLKLLRCRIIHNNNC
EC50 of PRL in the presence of 1 µM Ser PRL S33A Q73L G129R K190R, proliferation of BaF/3 cells stably transfected with hPRLR [3]: 531 nM

B8: N^alpha1-(3-(20 kDa-mPEGyl)propyl) Ser PRL S33A Q73L G129R K190R (ligand)
chain: SLPICPGGAARCQVTLRDLFDRAVVLSHYIHNLASEMFSEFDKRYTHGRGFITKAINSCHTSSLATPEDKEQALQMNQKDFLSLIVSILRSWNEPLYHLVTEVRGMQEAPEAILSKAVEIEEQTKRLLERMELIVSQVHPETKENEIYPVWSGLPSLQMADEESRLSAYYNLLHCLRRDSHKIDNYLKLLRCRIIHNNNC
modifications: N-terminal alpha-amino group (N^alpha1, of the added serine) alkylated with 3-(20 kDa mPEGyl)propyl by reductive amination
EC50 of PRL in the presence of 1 µM Ser PRL S33A Q73L G129R K190R PEG20k, proliferation of BaF/3 cells stably transfected with hPRLR [3]: 19 nM

B9: PRL(12-199) Q12S G129R (ligand)
chain: SVTLRDLFDRAVVLSHYIHNLSSEMFSEFDKRYTHGRGFITKAINSCHTSSLATPEDKEQAQQMNQKDFLSLIVSILRSWNEPLYHLVTEVRGMQEAPEAILSKAVEIEEQTKRLLERMELIVSQVHPETKENEIYPVWSGLPSLQMADEESRLSAYYNLLHCLRRDSHKIDNYLKLLKCRIIHNNNC
EC50 of PRL in the presence of 1 µM PRL(12-199) Q12S G129R, proliferation of BaF/3 cells stably transfected with hPRLR [3]: 40 nM
